Experiment [1] addresses T1, full-length Pin1 (UniProt Q13526 1-163).
T1 construct: Pin1 (peptidyl-prolyl cis/trans isomerase), full length; WW domain, linker and PPIase (catalytic) domain; Uniprot Q13526 is printed for the WW construct; 15N-labelled for NMR; The vector has a TEV cleavage site; Monomer by IM-MS; also called Pin1 full-length; full-length Pin1 protein; source: recombinant; clone from Addgene (Dustin Maly's Lab) in pMCSG7
The experiment can be described thus: native MS; travelling wave ion mobility mass spectrometry (IM-MS), nano-electrospray; unbound full-length Pin1 or Pin1 with CPEB1 pS210, 30-50 μM, 20-50 mM NH4OAc pH 7.2. As to conditions: both partners purified.

Experiment [2] has as its target T1, full-length Pin1. Briefly: ITC; nano ITC, 12 °C or 25 °C; 20 mM Tris-HCl pH 7.0, 130 mM NaCl; 10- to 15-fold concentrated peptide injected (16 x 3 μL) into 190 μL of protein at 150-200 μM; single-site fit, except Pin1 full-length with pS210. As to conditions: both partners purified. In general terms: ITC needs no label: the signal is the heat of the interaction.

Experimental findings from paper PMC4601027, “Structural Analysis of the Pin1-CPEB1 interaction and its potential role in CPEB1 degradation” (Scientific Reports, 2015) are described below.

Values joined by “and” are separate entries in the source; they are usually repeats but may differ in a detail not shown here. Identical values can stand only once. Non-standard residues stand in square brackets, D forms with d. No end group written: not given here. pS = N[C@@H](COP(=O)(O)O)C(=O)O

T1 sequence (Q13526 whole entry, the tested form may be a part): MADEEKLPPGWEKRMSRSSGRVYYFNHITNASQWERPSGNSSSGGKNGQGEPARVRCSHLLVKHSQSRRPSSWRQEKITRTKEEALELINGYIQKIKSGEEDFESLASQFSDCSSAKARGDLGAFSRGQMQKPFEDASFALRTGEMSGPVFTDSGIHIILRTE

B1: CPEB1 pS210 peptide (peptide)
chain: RI[pS]PPLPF-NH2
For the molecule B1, the stoichiometry N (as a rule, the number of molecules, sites or subunits per partner or assembly) was 1 ligands per Pin1 and 2 ligands per Pin1 in experiment [1]; 0.85 in experiment [2].
